From PMC9122904, “Insights into the client protein release mechanism of the ATP-independent chaperone Spy” (Nature Communications, 2022)
Changes are numbered by the printed parent chain. Numbers in names are those of the source.

Tests used:
Assay in all cases: BLI; Octet RED96; client biotinylated and loaded on streptavidin sensors; Spy or Spy variant in solution at 0.25, 0.5, 1, 1.5 and 2 μM; 40 mM HEPES, 150 mM NaCl, pH 7.5; Kd calculated as koff/kon
Conditions in all cases: both partners purified
Spy D26E = biological target: T1, Spy D26E (UniProt P77754 24-161, D26E)
T1 construct: source: E. coli BL21 (DE3), purified (Ni-NTA, cation exchange, SEC); not shown: His6, N-terminal, cleaved; SUMO, N-terminal, cleaved
T1 sequence (looked up): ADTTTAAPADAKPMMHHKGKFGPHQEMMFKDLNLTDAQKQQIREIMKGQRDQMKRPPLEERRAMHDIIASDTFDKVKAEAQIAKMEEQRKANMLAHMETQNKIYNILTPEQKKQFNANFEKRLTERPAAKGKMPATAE

Spy D26R = biological target: T2, Spy D26R (UniProt P77754 24-161, D26R)
T2 construct: source: E. coli BL21 (DE3), purified (Ni-NTA, cation exchange, SEC); not shown: His6, N-terminal, cleaved; SUMO, N-terminal, cleaved
T2 sequence (looked up): T1 sequence (looked up) with E26R

Spy_(29-130) = biological target: T3, Spy_(29-130) (UniProt P77754 52-153)
T3 construct: Spy chaperone, residues 29-130; source: E. coli BL21 (DE3), purified (Ni-NTA, cation exchange, SEC); not shown: His6, N-terminal, cleaved; SUMO, N-terminal, cleaved
T3 sequence (looked up): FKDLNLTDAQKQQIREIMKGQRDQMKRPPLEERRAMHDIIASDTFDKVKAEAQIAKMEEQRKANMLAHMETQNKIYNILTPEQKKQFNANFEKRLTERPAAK
How it was run: (§1)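 Client proteins were biotinylated with EZ-link NHS-biotin at a 1:1 molar ratio, loaded onto streptavidin sensors, and measured by biolayer interferometry on an Octet RED96. The loaded sensors were dipped into 40 mM HEPES, 150 mM NaCl, pH 7.5 holding the analyte protein at 0.25, 0.5, 1, 1.5 or 2 μM, then moved to buffer without it. Fitting the wavelength-shift association and dissociation curves in SigmaPlot 12.0 gave the observed association rate and koff, kon was taken from the observed rate plotted against analyte concentration, and Kd was calculated as koff/kon.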

Spy_(21-130) = biological target: T4, Spy_(21-130) (UniProt P77754 44-153)
T4 construct: Spy chaperone, residues 21-130; source: E. coli BL21 (DE3), purified (Ni-NTA, cation exchange, SEC); not shown: His6, N-terminal, cleaved; SUMO, N-terminal, cleaved
T4 sequence (looked up): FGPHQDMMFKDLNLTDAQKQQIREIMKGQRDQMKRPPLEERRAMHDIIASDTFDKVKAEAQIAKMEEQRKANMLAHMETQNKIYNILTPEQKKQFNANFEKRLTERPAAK
How it was run: as §1

Spy_(1-124) = biological target: T5, Spy_(1-124) (UniProt P77754 24-147)
T5 construct: source: E. coli BL21 (DE3), purified (Ni-NTA, cation exchange, SEC); not shown: His6, N-terminal, cleaved; SUMO, N-terminal, cleaved
T5 sequence (looked up): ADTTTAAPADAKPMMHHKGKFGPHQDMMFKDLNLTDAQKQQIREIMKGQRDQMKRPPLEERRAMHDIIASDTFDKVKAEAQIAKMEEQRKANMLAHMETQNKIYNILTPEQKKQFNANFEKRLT
How it was run: as §1

Spy_(21-124) = biological target: T6, Spy_(21-124) (UniProt P77754 44-147)
T6 construct: source: E. coli BL21 (DE3), purified (Ni-NTA, cation exchange, SEC); not shown: His6, N-terminal, cleaved; SUMO, N-terminal, cleaved
T6 sequence (looked up): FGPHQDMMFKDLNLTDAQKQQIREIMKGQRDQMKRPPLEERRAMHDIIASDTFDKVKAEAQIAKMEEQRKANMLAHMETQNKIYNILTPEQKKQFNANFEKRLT
How it was run: as §1

Spy_(24-130) = biological target: T7, Spy_(24-130) (UniProt P77754 47-153)
T7 construct: Spy chaperone, residues 24-130; source: E. coli BL21 (DE3), purified (Ni-NTA, cation exchange, SEC); not shown: His6, N-terminal, cleaved; SUMO, N-terminal, cleaved
T7 sequence (looked up): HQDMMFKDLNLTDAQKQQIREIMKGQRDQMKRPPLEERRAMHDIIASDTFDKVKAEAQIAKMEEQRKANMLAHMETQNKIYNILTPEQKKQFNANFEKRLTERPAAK
How it was run: as §1

Spy_(21-127) = biological target: T8, Spy_(21-127) (UniProt P77754 44-150)
T8 construct: Spy chaperone, residues 21-127; source: E. coli BL21 (DE3), purified (Ni-NTA, cation exchange, SEC); not shown: His6, N-terminal, cleaved; SUMO, N-terminal, cleaved
T8 sequence (looked up): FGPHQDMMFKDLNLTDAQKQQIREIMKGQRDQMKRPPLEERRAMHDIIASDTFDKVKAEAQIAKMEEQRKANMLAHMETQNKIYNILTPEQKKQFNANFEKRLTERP
How it was run: as §1

koff (Spy D26E): 0.196 s⁻¹ | koff (Spy D26R): 0.0811 s⁻¹ | kon (Spy_(29-130)): 283000 M⁻¹ s⁻¹ | kon (Spy_(21-130)): 187000 M⁻¹ s⁻¹ | kon (Spy_(1-124)): 203000 M⁻¹ s⁻¹ | kon (Spy_(21-124)): 267000 M⁻¹ s⁻¹ | kon (Spy_(24-130)): 210000 M⁻¹ s⁻¹ | kon (Spy_(21-127)): 258000 M⁻¹ s⁻¹
B1: Im7 H40W L53A I54A (natural protein)
chain: MELKNSISDYTEAEFVQLLKEIEKENVAATDDVLDVLLEWFVKITEHPDGTDAAYYPSDNRDDSPEGIVKEIKEWRAANGKPGFKQG
modifications: biotin (EZ-link NHS-biotin, 1:1 molar ratio of biotin to protein)
notes: Im7 (colicin E7 immunity protein) with H40W L53A I54A; Spy was made with an N-terminal His6-SUMO tag that was cleaved; also called Im7AAW; partially folded client; source: purified by a similar procedure to Spy
